# Columns and labels:
# [1] = target: Epstein-Barr virus BHRF1 a.a. 1-161 with C-terminal avi-6his tag (Epstein-Barr virus)
# [2] = target: Epstein-Barr virus BHRF1 a.a. 1-161 with C-terminal avi-6his tag (Epstein-Barr virus); assay: crystal structure PDB 2WH6 of Bim-BH3 bound to BHRF1; solvent-accessible surface buried in the complex
# [3] = target: Epstein-Barr virus BHRF1 a.a. 1-161 with C-terminal avi-6his tag (Epstein-Barr virus); remark: listed apart in the source
# Chain of Bim-BH3 (peptide) (O43521 141-166): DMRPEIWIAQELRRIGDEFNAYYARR
substance,measurement,setting,value
Bim-BH3 (peptide),buried contact surface on BHRF1,[1],908 Å2
same,Total buried SASA,[2],2000 Å2
same,buried contact surface on Bim-BH3,[3],1100 Å2
